Assays:
[1] = molecular target: N-terminal Myc epitope-tagged human PSF2 (Myc-PSF2) (UniProt Q9Y248); assay: co-immunoprecipitation (IP anti-Flag, IB anti-Myc), band ratio; conditions: 293T cells, transient expression
GFP-Flag-Snm1B^221–363 = molecular target: T1, GFP-Flag-Snm1B^221–363 (human, UniProt Q9H816 221-363); assay: co-IP; 293T transiently co-transfected, RIPA lysate, GFP-Flag-Snm1B fragments immunoprecipitated with anti-GFP antibody and GammaBind G Sepharose, immunoblot anti-Myc; conditions: partners not purified
T1 construct: Named GFP-Flag-Snm1B: the Flag tag is at the 5′ end of the Snm1B fragment, GFP is fused in frame; also called PSF2 BR1; source: 293T, transiently transfected (pEGFP-C3), in lysate; not shown: Flag, N-terminal, kept
T1 sequence (looked up): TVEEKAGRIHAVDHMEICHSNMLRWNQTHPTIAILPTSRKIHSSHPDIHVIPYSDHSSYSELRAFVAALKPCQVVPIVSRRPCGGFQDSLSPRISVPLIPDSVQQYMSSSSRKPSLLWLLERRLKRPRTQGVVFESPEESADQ

Flag-Snm1B^Δ222–363 = molecular target: T2, Flag-Snm1B^Δ222–363 (human, UniProt Q9H816 1-221; Q9H816 364-532); assay: co-IP; 293T transiently co-transfected, RIPA lysate, Flag-Snm1B immunoprecipitated with anti-Flag M2 affinity gel at 4°C overnight, immunoblot for Myc-PSF2 or Mus81; with or without co-expressed Myc-PSF2 or HA-Mus81; conditions: partners not purified
T2 construct: RGR is my translation read in frame from its first base; source: 293T, transiently transfected (pLPC), in lysate; not shown: Flag, N-terminal, kept
T2 chain: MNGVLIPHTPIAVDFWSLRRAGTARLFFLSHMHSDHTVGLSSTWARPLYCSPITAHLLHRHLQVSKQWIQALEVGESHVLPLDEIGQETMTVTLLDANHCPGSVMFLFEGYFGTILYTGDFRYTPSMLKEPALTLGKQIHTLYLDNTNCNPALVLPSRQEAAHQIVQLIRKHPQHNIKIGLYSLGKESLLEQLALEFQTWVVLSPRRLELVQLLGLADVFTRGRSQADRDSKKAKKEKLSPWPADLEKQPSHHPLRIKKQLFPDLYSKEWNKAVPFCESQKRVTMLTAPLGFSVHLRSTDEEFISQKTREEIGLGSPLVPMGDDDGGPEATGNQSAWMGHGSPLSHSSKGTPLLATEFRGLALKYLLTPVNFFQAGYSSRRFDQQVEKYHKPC

[2] = molecular target: T3, N-terminal Flag epitope-tagged human Snm1B (Flag-Snm1B) (human, UniProt Q9H816 1-532); assay: as above; conditions: partners not purified
T3 construct: also called Flag-Snm1B-WT; Flag-Snm1B^WT; source: 293T, transiently transfected (pLPC), in lysate; not shown: Flag, N-terminal, kept
T3 sequence (looked up): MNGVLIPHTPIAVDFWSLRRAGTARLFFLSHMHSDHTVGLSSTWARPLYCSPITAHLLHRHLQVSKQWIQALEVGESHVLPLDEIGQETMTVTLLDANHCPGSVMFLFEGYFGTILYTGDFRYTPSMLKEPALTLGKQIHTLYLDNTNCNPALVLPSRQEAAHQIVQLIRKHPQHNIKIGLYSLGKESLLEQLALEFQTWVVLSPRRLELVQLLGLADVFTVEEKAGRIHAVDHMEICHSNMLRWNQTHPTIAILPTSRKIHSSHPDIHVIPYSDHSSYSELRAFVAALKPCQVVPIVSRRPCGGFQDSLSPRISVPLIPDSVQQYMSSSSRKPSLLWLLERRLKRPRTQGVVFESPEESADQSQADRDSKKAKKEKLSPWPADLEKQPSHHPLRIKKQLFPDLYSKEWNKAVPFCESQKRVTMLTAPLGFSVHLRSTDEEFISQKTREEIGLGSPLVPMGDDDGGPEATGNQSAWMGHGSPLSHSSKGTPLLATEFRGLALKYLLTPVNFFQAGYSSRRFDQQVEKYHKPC

Work on “N-terminal Flag epitope-tagged human Snm1B (Flag-Snm1B) (from UniProt Q9H816) N2” yielded an other: normalized Myc-PSF2:Flag-Snm1B ratio ([1]; no Myc-TRF2 co-expressed, parent: 1) of 1.05 and an other: normalized Myc-PSF2:Flag-Snm1B ratio ([1]; wild type Myc-TRF2 co-expressed (parent value is Flag-Snm1B WT + Myc-TRF2 WT + Myc-PSF2 lane), parent: 0.41) of 0.81.

B1: N-terminal Myc epitope-tagged human PSF2 (Myc-PSF2) (natural protein, UniProt Q9Y248 1-185, looked up)
chain: MDAAEVEFLAEKELVTIIPNFSLDKIYLIGGDLGPFNPGLPVEVPLWLAINLKQRQKCRLLPPEWMDVEKLEKMRDHERKEETFTPMPSPYYMELTKLLLNHASDNIPKADEIRTLVKDMWDTRIAKLRVSADSFVRQQEAHAKLDNLTLMEINTSGTFLTQALNHMYKLRTNLQPLESTQSQDF
notes: PSF2, subunit of the GINS complex, human, full length; amplified from clone MGC-673 (ATCC); source: 293T, transiently transfected (pCMV-MYC), in lysate; not shown: Myc, N-terminal, kept
With B1 the “fold of co-immunoprecipitated Myc-PSF2 against GFP-Flag-Snm1B 413–532” value (GFP-Flag-Snm1B^221–363) was about 3 fold more and the “fold of co-immunoprecipitated Myc-PSF2 against Flag-Snm1B WT” value (Flag-Snm1B^Δ222–363) was about 6 fold less.

B2: HA epitope-tagged Mus81 (HA-Mus81) (natural protein, UniProt Q96NY9 1-551, looked up)
chain: MAAPVRLGRKRPLPACPNPLFVRWLTEWRDEATRSRRRTRFVFQKALRSLRRYPLPLRSGKEAKILQHFGDGLCRMLDERLQRHRTSGGDHAPDSPSGENSPAPQGRLAEVQDSSMPVPAQPKAGGSGSYWPARHSGARVILLVLYREHLNPNGHHFLTKEELLQRCAQKSPRVAPGSARPWPALRSLLHRNLVLRTHQPARYSLTPEGLELAQKLAESEGLSLLNVGIGPKEPPGEETAVPGAASAELASEAGVQQQPLELRPGEYRVLLCVDIGETRGGGHRPELLRELQRLHVTHTVRKLHVGDFVWVAQETNPRDPANPGELVLDHIVERKRLDDLCSSIIDGRFREQKFRLKRCGLERRVYLVEEHGSVHNLSLPESTLLQAVTNTQVIDGFFVKRTADIKESAAYLALLTRGLQRLYQGHTLRSRPWGTPGNPESGAMTSPNPLCSLLTFSDFNAGAIKNKAQSVREVFARQLMQVRGVSGEKAAALVDRYSTPASLLAAYDACATPKEQETLLSTIKCGRLQRNLGPALSRTLSQLYCSYGPLT
notes: Mus81, subunit of the Mus81/Eme1 endonuclease; amplified from clone MGC:14953 (Imagenes); Detected with an anti-Mus81 antibody, which may also see the endogenous Mus81 of 293T cells; source: 293T, transiently transfected (pcDNA3), in lysate; not shown: HA, N-terminal, kept
B2 was tested, and the “fold increase of co-immunoprecipitated Mus81 with Myc-PSF2 against without Myc-PSF2” value [2] was over 2 fold.
